Test results published in publication PMC7383920, “Metabolomics analysis and metabolite‐agronomic trait associations using kernels of wheat (Triticum aestivum) recombinant inbred lines” (The Plant Journal, 2020).
Positions count from the first letter of the chain named.

Columns and labels:
[1] = target: T1, UGT88C14 (KN9204 allele of TraesCS2B01G012000) (Triticum aestivum, UniProt Z9F0T2E170); test: LC-MS glucosyltransferase assay; format: biochemical; conditions: UDP-glucose as donor, Tris-HCl pH 7.5, 10 mM MgCl2, 37 °C; mainly 7-O-glucosylation
T1 construct: full-length natural allele from KN9204, StrepII-tagged, expressed in and purified from N. benthamiana
T1 sequence (Z9F0T2E170 1-489): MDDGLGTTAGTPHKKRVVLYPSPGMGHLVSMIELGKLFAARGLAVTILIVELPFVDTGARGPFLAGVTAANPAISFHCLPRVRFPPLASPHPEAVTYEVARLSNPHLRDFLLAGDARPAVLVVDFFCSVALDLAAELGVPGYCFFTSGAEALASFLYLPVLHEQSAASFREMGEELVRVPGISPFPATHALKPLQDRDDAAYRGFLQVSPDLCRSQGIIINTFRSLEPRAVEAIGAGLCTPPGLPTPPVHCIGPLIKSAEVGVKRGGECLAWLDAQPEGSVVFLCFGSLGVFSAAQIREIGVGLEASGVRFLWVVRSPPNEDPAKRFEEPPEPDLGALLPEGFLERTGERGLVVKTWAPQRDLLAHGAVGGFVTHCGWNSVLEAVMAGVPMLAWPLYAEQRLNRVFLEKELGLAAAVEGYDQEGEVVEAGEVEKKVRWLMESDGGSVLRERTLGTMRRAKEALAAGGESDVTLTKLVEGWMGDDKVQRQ

[2] = target: T2, UGT88C13 (TraesCS2B01G012000) (Triticum aestivum, UniProt A0A3B6BZ82); test: LC-MS glucosyltransferase assay; format: biochemical; conditions: UDP-glucose as donor, Tris-HCl pH 7.5, 10 mM MgCl2, 37 °C; mainly 7-O-glucosylation
T2 construct: gene LOC123043080; also cloned in pGEX-6p-1 (GST)
T2 sequence (A0A3B6BZ82 1-489): T1 sequence (Z9F0T2E170 1-489) with P90S, L363V, T455A

[3] = substrate: O=c1cc(-c2ccc(O)c(O)c2)oc2cc(O)cc(O)c12; test: LC-MS glucosyltransferase assay; format: biochemical, Triticum aestivum; conditions: UDP-glucose as donor, Tris-HCl pH 7.5, 10 mM MgCl2, 37 °C, mainly 7-O-glucosylation
[4] = substrate: O=c1cc(-c2ccc(O)cc2)oc2cc(O)cc(O)c12; test: purified protein; conditions: UDP-glucose as donor, Tris-HCl pH 7.5, 10 mM MgCl2, 37 °C, mainly 7-O-glucosylation
[5] = substrate: O=c1c(O)c(-c2ccc(O)cc2)oc2cc(O)cc(O)c12; test: purified protein; conditions: UDP-glucose as donor, Tris-HCl pH 7.5, 10 mM MgCl2, 37 °C, mainly 7-O-glucosylation

O=c1cc(-c2ccc(O)cc2)oc2cc(O)cc(O)c12 [apigenin]
Km [1]: 21.8 ± 9.15 µM

O=c1c(O)c(-c2ccc(O)c(O)c2)oc2cc(O)cc(O)c12 [quercetin]
Km [2]: > 1000 µM

B1: UGT88C13 (TraesCS2B01G012000) (Triticum aestivum) (protein)
chain: T1 sequence (Z9F0T2E170 1-489) with P90S, L363V, T455A
notes: also cloned in pGEX-6p-1 (GST)
Km [3]: 22.13 ± 6.54 µM
Km [4]: 19.47 ± 6.76 µM
Km [5]: 20.33 ± 5.75 µM
